The text below walks through data of US20030157522A1, “Methods and reagents for peptide-BIR interaction screens” (priority 2001, published 2003).

No end group written: not given here.

In experiment [1] the test system is T24 bladder carcinoma cells. Put plainly: Sensitization of adriamycin-resistant T24 cells (cell survival). Format: cell-based. The following applies: 10 μg/ml adriamycin alone. As for the experimental part: FIG. 8 is a schematic illustration showing the effect of a compound identified as being capable of dislodging a HID 7mer from XIAP BIR3 on cell survival of T24 bladder carcinoma cells after 24 hours of exposure to 10 μg/ml adriamycin.
This is what we would expect from a compound that blocks the ability of IAPs to block caspases once the cell death pathways are activated by a death stimulus such as chemotherapy or radiation. Cancer cells in vivo may also die by the simple addition of the compound if the cancer cell is stressed by oncogene activation, nutrient deprivation, or loss of contact, and the IAPs are blocking caspases from effecting programmed cell death. The compound would be expected to antagonize IAP function and allow caspase activation under these situations.

For experiment [2], the target named is T1, XIAP BIR3 (Homo sapiens, UniProt P98170).
T1 construct: as the C-terminal portion of XIAP lacking BIR1 and BIR2, and containing BIR3 and the RING domain to the final C-terminal residue; made in house; host or cells: E. coli
Briefly: Fluorescence polarization HID peptide displacement assay. The following applies: GST BIR3/Ring, fluorescein-HID probe. Format: binding. The source says: We developed an assay to screen for compounds capable of competing for the binding of an IAP-interacting peptide and displacing the peptide from its binding groove on BIR3 of XIAP (FIGS. 2-5). The BIR3 domain was produced as a GST fusion protein in E. Coli, as the C-terminal portion of XIAP lacking BIR1 and BIR2, and containing BIR3 and the RING domain to the final C-terminal residue, and purified to greater than 95% purity. Only the properly folded BIR3 domain is required here, and many fusion and purification strategies are available to achieve this.
The FP assay is based on the following principles: a smaller molecule tumbles more rapidly in solution than a larger one. A tumbling fluor will depolarize plane-polarized light, and any change in tumbling rate due to binding of the peptide to a larger molecule such as XIAP or the displacement of the peptide from XIAP, and therefore any change in fluorescence polarization can be accurately and sensitively measured (FIGS. 2A and 2B). […]
Assays and High Throughput assays. […] Following overnight incubation at 4° C., the fluorescence polarization was measured using a Polarion plate reader (Tecan, Research Triangle Park, N.C.). […]
Upon primary screening, hits were re-supplied from Talon Cheminformatics (Acton, ON, Canada) and a new 20 mM drug stock was prepared in 10% DMSO. […] Fluorescence Polarization Units are expressed in MP (FIG. 6).

Experiment [3] concerns the target T1, XIAP BIR3. The following applies: previously shown; cited from earlier work.

T1 sequence (P98170 246-497 limits assumed): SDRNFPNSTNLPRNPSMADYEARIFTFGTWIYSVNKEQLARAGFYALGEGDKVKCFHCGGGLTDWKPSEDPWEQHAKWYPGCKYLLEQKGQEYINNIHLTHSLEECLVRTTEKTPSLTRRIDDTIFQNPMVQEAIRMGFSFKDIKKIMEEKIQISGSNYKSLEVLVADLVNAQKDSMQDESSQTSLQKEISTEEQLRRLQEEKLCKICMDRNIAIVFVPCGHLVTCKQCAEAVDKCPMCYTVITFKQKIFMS

As for `COc1cccc2c1C(=O)c1c(O)c3c(c(O)c1C2=O)C[C@@](O)(C(=O)CO)C[C@@H]3O[C@H]1C[C@H](N)[C@H](O)[C@H](C)O1` [adriamycin], the “cell death with adriamycin on its own” value in experiment [1] is recorded as “does not result in any cell death”.
For the compound “Ala-Val-Pro-Phe-Tyr-Leu-Pro-Gly-Gly (AVPFYLPGG; not fully specified (C-terminus); printed as Ala-Val-Pro-Phe-Tyr-Leu-Pro-Gly-Gly; also: fluorescein label (probe form)) [HID peptide, peptide based on Drosophila HID with Gly-Gly spacer]”, the “competition with / displacement of fluorescein-labeled HID peptide from XIAP BIR3” value with XIAP BIR3 [2] is “compete off the fluorescein-labeled peptide”; with XIAP BIR3 [2] (listed as HID polypeptide), “can compete with labeled HID polypeptide”. In addition, in the experiment with XIAP BIR3 [3], the “binding affinity to XIAP BIR3” value was “high affinity”.
